In the test the target is T1, achaete-scute homolog 1 (ASCL1), expressed in cells (UniProt P50553 1-236).
T1 sequence (looked up): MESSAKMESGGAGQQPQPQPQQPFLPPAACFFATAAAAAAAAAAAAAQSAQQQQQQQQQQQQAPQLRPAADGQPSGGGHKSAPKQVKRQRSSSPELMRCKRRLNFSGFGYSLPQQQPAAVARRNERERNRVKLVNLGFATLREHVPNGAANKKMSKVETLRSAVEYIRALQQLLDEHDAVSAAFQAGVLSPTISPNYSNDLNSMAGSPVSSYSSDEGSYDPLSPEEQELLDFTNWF
The test is described as follows: cell-based or functional assay.

Numbering of substitutions follows the chain as printed. Numbers in names are those of the source.

B1: TCF4-B¯ A587P (natural protein, human, UniProt P15884-3 1-671, looked up)
chain: MHHQQRMAALGTDKELSDLLDFSAMFSPPVSSGKNGPTSLASGHFTGSNVEDRSSSGSWGNGGHPSPSRNYGDGTPYDHMTSRDLGSHDNLSPPFVNSRIQSKTERGSYSSYGRESNLQGCHQQSLLGGDMDMGNPGTLSPTKPGSQYYQYSSNNPRRRPLHSSAMEVQTKKVRKVPPGLPSSVYAPSASTADYNRDSPGYPSSKPATSTFPSSFFMQDGHHSSDPWSSSSGMNQPGYAGMLGNSSHIPQSSSYCSLHPHERLSYPSHSSADINSSLPPMSTFHRSGTNHYSTSSCTPPANGTDSIMANRGSGAAGSSQTGDALGKALASIYSPDHTNNSFSSNPSTPVGSPPSLSAGTAVWSRNGGQASSSPNYEGPLHSLQSRIEDRLERLDDAIHVLRNHAVGPSTAMPGGHGDMHGIIGPSHNGAMGGLGSGYGTGLLSANRHSLMVGTHREDGVALRGSHSLLPNQVPVPQLPVQSATSPDLNPPQDPYRGMPPGLQGQSVSSGSSEIKSDDEGDENLQDTKSSEDKKLDDDKKDIKSITSNNDDEDLTPEQKAEREKERRMANNARERLRVRDINEPFKELGRMVQLHLKSDKPQTKLLILHQAVAVILSLEQQVRERNLNPKAACLKRREEEKVSSEPPPLSLAGPHPGMGDASNHMGQM
Turning to B1, the “luciferase reporter (12 μE5 E-boxes, minimal promoter) in HEK293 cells, coexpressed with ASCL1; reduction against WT TCF4-B¯” value came to 4.8 fold.

B2: TCF4-B¯ S253R (natural protein, human, UniProt P15884-3 1-671, looked up)
chain: B1 chain with S253R, P583A
For B2, the “luciferase reporter (12 μE5 E-boxes, minimal promoter) in HEK293 cells, coexpressed with ASCL1; reduction against WT TCF4-B¯” value amounted to 1.4 fold.

B3: TCF4-B¯ R569W (natural protein, human, UniProt P15884-3 1-671, looked up)
chain: B1 chain with R565W, P583A
Regarding B3, the “luciferase reporter (12 μE5 E-boxes, minimal promoter) in HEK293 cells, coexpressed with ASCL1; increase against WT TCF4-B¯” value is 2.2 fold and the “luciferase reporter in rat primary neurons, basal conditions, coexpressed with ASCL1; increase against WT TCF4-B¯” value came to 2.8 fold.

B4: TCF4-B¯ N585D (natural protein, human, UniProt P15884-3 1-671, looked up)
chain: B1 chain with N581D, P583A
Regarding B4, the “luciferase reporter (12 μE5 E-boxes, minimal promoter) in HEK293 cells, coexpressed with ASCL1; increase against WT TCF4-B¯” value stood at 1.6 fold and the “luciferase reporter in rat primary neurons, basal conditions, coexpressed with ASCL1; increase against WT TCF4-B¯” value came to 2.4 fold.

B5: Transcription factor 4 isoform TCF4-A¯, wild type (natural protein, human, UniProt P15884-6 1-507, looked up)
chain: MYCAYTIPGMGGNSLMYYYNGKAVYAPSASTADYNRDSPGYPSSKPATSTFPSSFFMQDGHHSSDPWSSSSGMNQPGYAGMLGNSSHIPQSSSYCSLHPHERLSYPSHSSADINSSLPPMSTFHRSGTNHYSTSSCTPPANGTDSIMANRGSGAAGSSQTGDALGKALASIYSPDHTNNSFSSNPSTPVGSPPSLSAGTAVWSRNGGQASSSPNYEGPLHSLQSRIEDRLERLDDAIHVLRNHAVGPSTAMPGGHGDMHGIIGPSHNGAMGGLGSGYGTGLLSANRHSLMVGTHREDGVALRGSHSLLPNQVPVPQLPVQSATSPDLNPPQDPYRGMPPGLQGQSVSSGSSEIKSDDEGDENLQDTKSSEDKKLDDDKKDIKSITSNNDDEDLTPEQKAEREKERRMANNARERLRVRDINEAFKELGRMVQLHLKSDKPQTKLLILHQAVAVILSLEQQVRERNLNPKAACLKRREEEKVSSEPPPLSLAGPHPGMGDASNHMGQM
Take B5: the “luciferase reporter (12 μE5 E-boxes, TK promoter) in depolarized rat primary neurons; increase when ASCL1 was coexpressed” value is 2.5 fold.
